Here are results for 3 substances from paper PMC5207708.

The target in one experiment is MIER3 isoform 1 (UniProt Q7Z3K6). Kind of experiment: co-IP; HEK293 cells transfected with the myc-tagged protein; lysis in 1% Triton X-100, 150 mM NaCl, 20 mM Tris-Cl pH 7.5, 1 mM EDTA; IP with 9E10 anti-myc overnight at 4°C; endogenous HDAC1 and HDAC2 by Western; band densitometry (HDAC:MIER ratio); also with or without 12.5 μM Ins(1,4,5,6)P4 during the IP (no substantial difference).

The target in a further experiment is MIER2 (UniProt Q8N344). The description is as above.
Chain of UniProt Q8N344 (Q8N344 whole entry): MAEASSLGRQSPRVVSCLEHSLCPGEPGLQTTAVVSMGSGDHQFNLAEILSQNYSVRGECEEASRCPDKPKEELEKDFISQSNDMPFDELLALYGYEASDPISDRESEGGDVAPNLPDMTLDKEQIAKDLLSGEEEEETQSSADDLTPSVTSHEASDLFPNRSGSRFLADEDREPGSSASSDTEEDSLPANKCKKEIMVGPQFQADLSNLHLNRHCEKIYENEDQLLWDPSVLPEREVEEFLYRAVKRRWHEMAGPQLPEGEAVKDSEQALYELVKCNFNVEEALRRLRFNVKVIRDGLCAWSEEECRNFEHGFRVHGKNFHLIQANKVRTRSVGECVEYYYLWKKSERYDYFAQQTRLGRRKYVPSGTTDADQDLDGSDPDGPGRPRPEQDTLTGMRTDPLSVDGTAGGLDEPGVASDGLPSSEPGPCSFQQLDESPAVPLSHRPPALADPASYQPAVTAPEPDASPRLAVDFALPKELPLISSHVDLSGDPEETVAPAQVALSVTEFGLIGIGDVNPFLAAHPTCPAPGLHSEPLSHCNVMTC

Chain of UniProt Q7Z3K6 (Q7Z3K6 whole entry, canonical isoform): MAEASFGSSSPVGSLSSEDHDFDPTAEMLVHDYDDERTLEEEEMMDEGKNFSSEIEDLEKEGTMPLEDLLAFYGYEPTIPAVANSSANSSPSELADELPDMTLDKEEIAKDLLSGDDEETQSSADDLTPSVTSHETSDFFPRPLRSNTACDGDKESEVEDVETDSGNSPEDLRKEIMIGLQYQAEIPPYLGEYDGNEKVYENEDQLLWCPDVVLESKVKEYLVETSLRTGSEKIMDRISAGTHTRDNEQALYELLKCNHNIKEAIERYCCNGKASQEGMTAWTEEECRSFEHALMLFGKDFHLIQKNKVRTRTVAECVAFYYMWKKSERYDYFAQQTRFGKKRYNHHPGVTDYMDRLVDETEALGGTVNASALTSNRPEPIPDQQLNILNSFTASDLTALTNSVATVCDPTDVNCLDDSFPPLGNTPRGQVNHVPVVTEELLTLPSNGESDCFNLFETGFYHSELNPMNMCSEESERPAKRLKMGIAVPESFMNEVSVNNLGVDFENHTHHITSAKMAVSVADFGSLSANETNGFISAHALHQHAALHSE

As for “HDAC1 (from UniProt Q13547 1-482) (HEK293 cells)”, the HDAC:MIER ratio in the immunoprecipitate, percent of that in the MIER1α complex with MIER3 isoform 1 came out at 9%. For the substance “HDAC2 (from UniProt Q92769 1-488) (enzyme)”, the HDAC:MIER ratio in the immunoprecipitate, percent of that in the MIER1α complex in the experiment with MIER2 worked out at 20%. Take HDAC2 (from UniProt Q92769 1-488): in the experiment with MIER3 isoform 1, the HDAC:MIER ratio in the immunoprecipitate, percent of that in the MIER1α complex is 9%.
